B1: TPR t1 (parent)
chain: GACCAAUCUGCCCUCAGAGCUCGAGAACAUCUUCGGAUGCAGAGGAGGCAGGCUUCGGUGGCGCGAUAGCGCCAACGUCCUCAACCUCCAAUGCAUCCCACCACAUGAUGAUGCCUGAAGAGCCUUGGUUUUUUG

Variants of: B1
Assay: polymerase ribozyme fitness, log enrichment relative to wild type (log ratio); higher = more active; in vitro selection for triplet polymerase activity
Procedure, shortened: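 Mutant libraries of each subunit of a heterodimeric triplet polymerase ribozyme were built by PCR and transcribed. Each library went through one round of in vitro selection in triplicate: annealing with biotinylated primer, partner subunit and triplets, frozen incubation at −7 °C, gel excision of extended constructs, streptavidin-bead capture and RT-PCR. Input and output libraries were Illumina-sequenced; only genotypes with ≥10 input reads and ≥1 read per output were kept. Fitness is log2(genotype enrichment/wild-type enrichment), using inverse-variance-weighted replicate averages.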

Row | Variant | polymerase ribozyme fitness (log ratio)
1 | GACCAAUCUGCCCUCAGAGCUCGAGAACAUCUUCGGAUGCAGAGGAGGUAGGCUUCGGUGGCGCGAUAGCGCCAACGUCCUCAACCUCGAAUGCAUCCCACCACAUGAUGAUGCCUGAAGAGCCUUGGUUUUUUG [C49U C89G] | -1.74
2 | GACCAAUCUGCCCUCAGAGCUCGAGAACAUCUUCGGAUGCAGAGGAGGUAGGCUUCGGUGGCGCGAUAGCGCCAACGUCCUCAACCUCCAAUGCAUCCCACAACAUGAUGAUGCCUGAAGAGCCUUGGUUUUUUG [C49U C102A] | -3.24
3 | GACCAAUCUGCCCUCAGAGCUCGAGAACAUCUUCGGAUGCAGAGGAGGUAGGCUUCGGUGGCGCGAUAGCGCCAACGUCCUCAACUUGCAAUGCAUCCCACCACAUGAUGAUGCGUGAAGAGCCUUGGUUUUUUG [C49U C86U C88G C115G] | -4.09
4 | GACCAAUCUGCCCUCAGAGCUCGAGAACAUCUUCGGAUGCAGAGGAGGUAGGCUUCGGUGGCGCGAUAGCGCCAACGUCCUCAACCUCCAAUGCAUCCCACCACAUGAUGAUGCCUGAAGAGUCUUGGUUUUUUG [C49U C123U] | 1.01
5 | GACCAAUCUGCCCUCAGAGCUCGAGAACAUCUUCGGAUGCAGAGGAGGUAGGCUUCGGUUGCGCGAUAGCGCCAACGUCCUCAACCUCCAAUGCAUCCCACCACAAGAUGAUGCCUGAAGAGCCUUUGUGUUUUU [C49U G60U U106A G127U U130G G135U] | -1.71
6 | GACCAAUCUGCCCUCAGAGCUCGAGAACAUCUUCGGAUGCAGAGGAGGUAGGCUUCGGUGGCGCGAUAGCGCAUACGUCCUCAACCUCCAAUGCAUCCCACUACAUGAUGAUGCCUGAAGAGCCUUGGUUUUUUG [C49U C73A A74U C102U] | -3.4
7 | GACCAAUCUGCCCUCAGAGCUCGAGAACAUCUUCGGAUGCAGAGGAGGUAGGCUUCGGUGGCGCGAUAGCGCCAACGUCACCAACCUCCAAUGCAUCCCACCACAAGAUGAAGCCUGAAGAGCCUUGGUUUUUUG [C49U C80A U81C U106A U112A] | -4.56
8 | GACCAAUCUGCCCUCAGAGCUCGAGAACAUCUUCGGAUGCAGAGGAGGUAGGCUUCUGUGGCGCGAUAGCGCCAACGUCCUCAACCUCCAAUGCAUCCCACCACAUGAUCAUGCCUGAAGAGCCUUGGUUUUUUG [C49U G57U G110C] | -4.9
9 | GACCAAUCUGCCCUCAGAGCUCGAGAACAUCUUCGGAUGCAGAGGAGGUAGACUUCGGUGGCGCGAUAGCCCCAACGUCCUCAACCUCCAAUGCAUCCCACCACAUGAUGAUGCCUGAAGAGCCUUGGUUUUUUG [C49U G52A G71C] | -5.43
10 | GACCAAUCUGCCCUCAGAGCUCGAGAACAUCUUCGGAUGCAGAGGAGGUAGGCUUCGCUGGCGCGAUAGCGCCAACGUCCUCAACCUCCAAUGCAUCCCACCACAUGAUGCUGCCUGAAGAGCCUUGGUUUUUUG [C49U G58C A111C] | -0.939
11 | GACCAAUCUGCCCUCAGAGCUCGAGAACAUCUUCGGAUGCAGAGGAGGUAGGCUUCGGUGGCGCGAUAGCGCCAACGUCCUCAACCUCCAAUGCAUCCCAGCACAUGAUGAUGCCUGAAGAGCCUUGGUUUUUUG [C49U C101G] | -2.04
12 | GACCAAUCUGCCCUCAGAGCUCGAGAACAUCUUCGGAUGCAGAGGAGGUAGGCUUCGGUGGCGCGAUAGCGCCAACGUCCUCAACCUCCAAUGCAUCUCACCACAUGAUGAUGCCUGAAGAGCCGUGGUUUUUUG [C49U C98U U125G] | -2.62
13 | GACCAAUCUGCCCUCAGAGCUCGAGAACAUCUUCGGAUGCAGAGGAGGUAGGCUUCGGUGGCGCGAUAGCGCAAACGUCCGCAACCUCCAAUGCAUCCCACCACAUGAUGAUGCCUGAAGAGCCUUGGUUUUUUG [C49U C73A U81G] | -2.45
14 | GACCAAUCUGCCCUCAGAGCUCGAGAACAUCUUCGGAUGCAGAGGAGGUAGGCUUCGCUUGCGCGAUAGCGCCAACGUCCUCAACCUCCAAUGCAUCCCACCACAUGAUGAUGUCUGAAGAGCCUUGGAUUUUUG [C49U G58C G60U C114U U129A] | -5.08
15 | GACCAAUCUGCCCUCAGAGCUCGAGAACAUCUUCGGAUGCAGAGGAGGUAGGCUUCGGUGGCGCGAUAGCGCCAACGUCCUCAACCUCCAAUGCAUCACACCACAUGAUGAUGCCUGAAGAGCCUUGGUUUUUUG [C49U C98A] | -5.99
16 | GACCAAUCUGCCCUCAGAGCUCGAGAACAUCUUCGGAUGCAGAGGAGGUAGACUUGGGUGGCGCGAUAGCGCCAACGUCCUCAACCUCCAAUGCAUCCCACCACAUGAUGAUGCCUGAAGAGCCUUGGUUUUUUG [C49U G52A C56G] | -2.31
17 | GACCAAUCUGCCCUCAGAGCUCGAGAACAUCUUCGGAUGCAGAGGAGGUAUGCUUCGGUGGCGCGAUAGCGCCAACGGGCUCAACCUCCAAUGCAUCCCACCACAUGAGGAUGCCUGAAGAGCGUUGGUUUUUUG [C49U G51U U78G C79G U109G C124G] | -6.06
18 | GACCAAUCUGCCCUCAGAGCUCGAGAACAUCUUCGGAUGCAGAGGAGGUAGCCUCCGGUGGCGCGAUAGCGCCAACGUCCUCAACCUCCAAUGCAUCCCACCACAUGAUGAUGCCUGAAGAGCCUUGGUUUUUUG [C49U G52C U55C] | -1.55
19 | GACCAAUCUGCCCUCAGAGCUCGAGAACAUCUUCGGAUGCAGAGGAGGUAUGCUUCGGUGGUGCGAUAGCGCCAACGUCAUCAACCUCCAAUGCAUCCCACCACAUGAUGAUGCCUGAAGAGCCUUGGUUUUUUG [C49U G51U C62U C80A] | -3.6
20 | GACCAAUCUGCCCUCAGAGCUCGAGAACAUCUUCGGAUGCAGAGGAGGUAGGCUUCGGUGGCGCGAUAGCGCAAACGUCCUCAACCUCCAAUGCAUCCCACUACAUGAUGAUGCCUGAAGAGCCUUGGUUUUUUG [C49U C73A C102U] | -2.56
21 | GACCAAUCUGCCCUCAGAGCUCGAGAACAUCUUCGGAUGCAGAGGAGGUAGGCUUCGGUGGCGCGAUAGCGCCAACGUCCUCAACCUCCAAUGCAUGCCACCACAUGAUGAUGCCUGAAGAGCCUUGGUUUUUUG [C49U C97G] | -5.89

Row | Variant | polymerase ribozyme fitness (log ratio)
22 | GACCAAUCUGCCCUCAGAGCUCGAGAACAUCUUCGGAUGCAGAGGAGGUAGGCUUCGGUGGCGCGAUAGCGCUAACGUCCGCAACCUCCAAUGCACCCCACCACAUGAUGAUGCCUGAAGAGCCUUGGUUUUUUG [C49U C73U U81G U96C] | -4.51
23 | GACCAAUCUGCCCUCAGAGCUCGAGAACAUCUUCGGAUGCAGAGGAGGUAGGCUUCGGUCGCGCGAUAGCGCCAACGUCCUCAACCUCCAAUGCAUCCCACCACAUGAUGAUGCCUGAAGAGCCUUAGUUUUUUG [C49U G60C G127A] | -2.38
24 | GACCAAUCUGCCCUCAGAGCUCGAGAACAUCUUCGGAUGCAGAGGAGGUAGGCUUCGGUGGCGCGAUAGCGCCAACGUCCUCAAGCUCCAAUGCAUCCCACCACAUGAUGAUGCCUGAAGAGCCUUGGUUUUUUG [C49U C85G] | -2.2
25 | GACCAAUCUGCCCUCAGAGCUCGAGAACAUCUUCGGAUGCAGAGGAGGUAGGCUUCGUUGGGGCGAUAGCGCCAACGUCCUCAACCUCCAAUGCAUCCCACCACAUGAUGAUGCCUGAAGAGCCUUGGUUUUUUG [C49U G58U C62G] | -1.16
26 | GACCAAUCUGCCCUCAGAGCUCGAGAACAUCUUCGGAUGCAGAGGAGGUAGGCUUCGGUGGCGCGAUAGCGCCAACGUCCUCAACCUCCAAUGCAUCCCACCACAUGAUGAUGCGUGAAGAGCCUUGGUUUUUUG [C49U C115G] | -2.23
27 | GACCAAUCUGCCCUCAGAGCUCGAGAACAUCUUCGGAUGCAGAGGAGGUAGGCUUCGGUGGCGCGAUAGCGCCAACGUCCUCAACCUCCAAUGCAUCCCACCACAUGAUGAUGCUUGAAGAGCCUUGGUUUUUUG [C49U C115U] | -1.16
28 | GACCAAUCUGCCCUCAGAGCUCGAGAACAUCUUCGGAUGCAGAGGAGGUAAGCUUCGGUGGCCCGAUAGCGCCAACGUCCUCAACCUCCAAUGCAUCCCACCACAUGAUGAUGCCUGAAGAGCCUUGGUUUUUUG [C49U G51A G63C] | -3
29 | GACCAAUCUGCCCUCAGAGCUCGAGAACAUCUUCGGAUGCAGAGGAGGUAGGCUUCCGUGGCGCGAUAGCGCCAACGUCCUCAACCUCCAAUGCAUCCCACCACAUGAUGAUGCCUGAAGAGCCUUGGUUUUUUG [C49U G57C] | -0.696
30 | GACCAAUCUGCCCUCAGAGCUCGAGAACAUCUUCGGAUGCAGAGGAGGUAGGCUUCGGUGGCGCGAUAGCGCCAACGUCCUCAACCUCCAAUGCAUCCCACCAUAUGAUGAUGCCUGAAGAGCCUUGGUUUUUUG [C49U C104U] | -0.182
31 | GACCAAUCUGCCCUCAGAGCUCGAGAACAUCUUCGGAUGCAGAGGAGGUAGGCUUCAGUGGCGCGAUAGCGCCAACGUCCUCAACCUCCAAUGCAACCCACCACAUGAUGAUGCCUGAAGAGCCUUGGUUUUUUG [C49U G57A U96A] | -3.31
32 | GACCAAUCUGCCCUCAGAGCUCGAGAACAUCUUCGGAUGCAGAGGAGGUAGGCUUCGGUGGCGCGAUAGCGCCAACGUCUUCAACCUCCAAUGCAUCCCACCACAUGAUGAUGUCUGAAGAUCCUUGGUUUUUUG [C49U C80U C114U G122U] | -5.64
33 | GACCAAUCUGCCCUCAGAGCUCGAGAACAUCUUCGGAUGCAGAGGAGGUAGGCUUCGGUGGCGCGAUAGCGCCAACGUCCUGAACCUCCAAUGCACUCCACCACAUGAUGAUGCUAGAAGAGCCUUGGUUUUUUG [C49U C82G U96C C97U C115U U116A] | -6.51
34 | GACCAAUCUGCCCUCAGAGCUCGAGAACAUCUUCGGAUGCAGAGGAGGUAGGCUUCGGUGGCGCGAUAGCGCCAACGUCCUCAACCUCCAAUGUAUCCCACCACAUGAUGUUGCCUGAAGAGCCUUGGUUUUUUG [C49U C94U A111U] | -5.05
35 | GACCAAUCUGCCCUCAGAGCUCGAGAACAUCUUCGGAUGCAGAGGAGGUAGGCUUCGGUGGCGCGAUAGCGCUUACGUCCUCAACCUCCAAUGCAUCCCACCACAUGAUGAUGCCUGAAGAGCCUUGGUUUUUUG [C49U C73U A74U] | -0.941
36 | GACCAAUCUGCCCUCAGAGCUCGAGAACAUCUUCGGAUGCAGAGGAGGUAGGCUUCGUUGGGGCGAUAGCGCCAACGUCCUCAACCUCCAAUGCAUCCCACCACAUGAUGAUGCCUGAUGAGCUUUGGUUUUUUG [C49U G58U C62G A119U C124U] | -1.37
37 | GACCAAUCUGCCCUCAGAGCUCGAGAACAUCUUCGGAUGCAGAGGAGGUAGCCUUCGGUGGCUCGAUAGCGCCAACGUCCUCAACCUCCAAUGCAUCCCACCACAUGAUGAUGCCUGAAGAGCAUUGGUUUUUUG [C49U G52C G63U C124A] | -0.717
38 | GACCAAUCUGCCCUCAGAGCUCGAGAACAUCUUCGGAUGCAGAGGAGGUAGGCUUCGGUGGCGCGAUAGCGCCAACGUCCUCAACCUCCAAUGCAUCCCACCACAUGAUGAUGACUGAAGAGCCUUGGUUUUUUG [C49U C114A] | -2.34
39 | GACCAAUCUGCCCUCAGAGCUCGAGAACAUCUUCGGAUGCAGAGGAGGUAGGCUUCGGUGGCGCGAUAGCGCCAACGUCCUCAACCUCCAAUGCAUCCCACCACAUGAUGAUGUCUGAAGAGCCUUGGUUUUUUG [C49U C114U] | -2.25
40 | GACCAAUCUGCCCUCAGAGCUCGAGAACAUCUUCGGAUGCAGAGGAGGUAGGCUUCGGUGGCGCGAUAGCGCCAACGUCCUCAACCUCCAAUGCAUCCCACCACAUGAUGAUGGCUGAAGAGCCUUGGUUUUUUG [C49U C114G] | -3.71
41 | GACCAAUCUGCCCUCAGAGCUCGAGAACAUCUUCGGAUGCAGAGGAGGUAGGCUUCGGUGGCGCGAUAGCGCCAACGUCCUCAACCUCCAAUGCAUCCCACCACAUGAUGAUGCCUGAAGAGCAUUGGUUUUUUG [C49U C124A] | 1.2
42 | GACCAAUCUGCCCUCAGAGCUCGAGAACAUCUUCGGAUGCAGAGGAGGUAGGCUUCGGUGGCGCGAUAGCGCCAACGUCCUCAACCUCCAAUGUAUCCCACCACAUGAUGAUGCCUGAAGAGCCUUGGUUUUUUG [C49U C94U] | -1.08
